From patent US20190359693A1 come the findings set out here.

Assay [1] has as its target hemagglutinin (HA) of influenza B/Lee/40 (Old) (influenza B virus) (UniProt P03460). Put plainly: cell-based or functional assay.
Assay [2] deals with hemagglutinin (HA) of influenza B/Harbin/7/94 (Yamagata) (influenza B virus). As to the kind of experiment: cell-based or functional assay.

hemagglutinin (HA) of influenza B/Lee/40 (Old) (influenza B virus), sequence (P03460 16-584 limits assumed): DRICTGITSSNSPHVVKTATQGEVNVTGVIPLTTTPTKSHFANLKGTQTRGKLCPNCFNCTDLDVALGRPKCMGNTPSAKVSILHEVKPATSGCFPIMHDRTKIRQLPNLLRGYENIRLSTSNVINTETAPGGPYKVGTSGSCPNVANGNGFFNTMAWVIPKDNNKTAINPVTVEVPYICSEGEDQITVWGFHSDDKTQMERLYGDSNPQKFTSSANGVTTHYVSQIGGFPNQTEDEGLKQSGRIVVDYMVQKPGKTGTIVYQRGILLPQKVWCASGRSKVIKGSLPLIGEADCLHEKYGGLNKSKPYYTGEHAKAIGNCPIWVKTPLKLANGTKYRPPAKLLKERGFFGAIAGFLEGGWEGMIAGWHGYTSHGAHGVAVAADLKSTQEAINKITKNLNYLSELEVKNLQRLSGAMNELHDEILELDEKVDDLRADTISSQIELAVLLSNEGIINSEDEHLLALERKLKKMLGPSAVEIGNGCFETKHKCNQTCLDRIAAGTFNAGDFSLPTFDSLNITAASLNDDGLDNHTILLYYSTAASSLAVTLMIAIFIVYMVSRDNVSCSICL

B1: SD3069 (VHH)
VHH: EVQLVESGGGLVQPGGSLRLSCAISGLSLDTYAVGWFRQAPGKEREGITCISSGHGMTYYADSVKGRFTVSTDNSKNTLYLQMNSLRAEDTAVYYCATESRYYCSDNWPAPQRYIYWGQGTLVTVSS
Turning to B1, the VNA IC50 in assay [1] was 67 nM; in assay [2], greater than 1000 nM.

B2: SD3049 (VHH)
VHH: EVQLVESGGGLVQPGGSLRLSCAASGLSLDTYAMSWFRQAPGKEREGVSCISSGHGMTYYADSVKGRFTISRDNSKNTLYLQMNSLQPEDTARYYCATESRYYCSDNWPAPQRYIYWGQGTQVTVSS
In assay [2], B2 had a VNA IC50 greater than 1000 nM.

B3: SD3052 (VHH)
VHH: EVQLVESGGGLVQPGGSLRLSCAASGLSLDTYAMSWFRQAPGKEREGVSCISSGHGLTYYADSVKGRFTISRDNSKNTLYLQMNSLQPEDTARYYCATESRYYCSDNWPAPQRYIYWGQGTQVTVSS
Regarding B3, the VNA IC50 in assay [2] was greater than 1000 nM.

B4: SD3055 (VHH)
VHH: EVQLVESGGGLVQPGGSLRLSCAASGLSLDTYAMSWFRQAPGKEREGITCISSGHGLTYYADSVKGRFTISRDNSKNTLYLQMNSLQPEDTARYYCATESRYYCSDNWPAPQRYIYWGQGTQVTVSS
In turn, B4 returned a VNA IC50 in assay [2] greater than 1000 nM.

B5: SD3056 (VHH)
VHH: EVQLVESGGGLVQPGGSLRLSCAASGLSLDTYAMSWFRQAPGKEREGITCISSGHGFTYYADSVKGRFTISRDNSKNTLYLQMNSLQPEDTARYYCATESRYYCSDNWPAPQRYIYWGQGTQVTVSS
In the case of B5, the VNA IC50 in assay [2] was greater than 1000 nM.

B6: SD3051 (VHH)
VHH: EVQLVESGGGLVQPGGSLRLSCAASGLSLDTYAMSWFRQAPGKEREGVSCISSGHGITYYADSVKGRFTISRDNSKNTLYLQMNSLQPEDTARYYCATESRYYCSDNWPAPQRYIYWGQGTQVTVSS
B6: the VNA IC50 in assay [2] was greater than 1000 nM.

B7: SD3053 (VHH)
VHH: EVQLVESGGGLVQPGGSLRLSCAASGLSLDTYAMSWFRQAPGKEREGVSCISSGHGFTYYADSVKGRFTISRDNSKNTLYLQMNSLQPEDTARYYCATESRYYCSDNWPAPQRYIYWGQGTQVTVSS
In assay [2], B7 returned a VNA IC50 greater than 1000 nM.

B8: SD3050 (VHH)
VHH: EVQLVESGGGLVQPGGSLRLSCAASGLSLDTYAMSWFRQAPGKEREGITCISSGHGMTYYADSVKGRFTISRDNSKNTLYLQMNSLQPEDTARYYCATESRYYCSDNWPAPQRYIYWGQGTQVTVSS
Molecule B8 registered a VNA IC50 in assay [2] greater than 1000 nM.

B9: SD3054 (VHH)
VHH: EVQLVESGGGLVQPGGSLRLSCAASGLSLDTYAMSWFRQAPGKEREGITCISSGHGITYYADSVKGRFTISRDNSKNTLYLQMNSLQPEDTARYYCATESRYYCSDNWPAPQRYIYWGQGTQVTVSS
In turn, B9 registered a VNA IC50 in assay [2] greater than 1000 nM.

B10: SD3001 (VHH)
VHH: EVQLVESGGGLVQPGGSLRLSCAASGFTFSTSWMSWLRQAPGKGLEWVSVINTDGGTYYADSVKGRFTISRDNSKNTLYLQMNSLRAEDTAVYYCAKDWGGPEPTRGQGTQVTVSS
Take B10: the VNA IC50 in assay [1] and in assay [2] was greater than 1000 nM in each case.

B11: SD3003 (VHH)
VHH: EVQLVESGGGLVQPGGSLRLSCAASGFTFSTSWMSWLRQAPGKGLEWVSVINTDGGTYYADSVKGRFTISRDNSKDTLYLQMNSLRAEDTAVYYCAKDWGGPEPTRGQGTQVTVSS
As to B11, the VNA IC50 in assay [1] and in assay [2] was greater than 1000 nM in each case.

B12: SD3002 (VHH)
VHH: EVQLVESGGGLVQPGGSLRLSCAASGFTFSTSWMYWLRQAPGKGLEWVSVINTDGGTYYADSVKGRFTISRDNSKNTLYLQMNSLRAEDTAVYYCAKDWGGPEPTRGQGTQVTVSS
B12: the results for the VNA IC50 in assay [1] and in assay [2] were greater than 1000 nM and 137 nM, respectively.

B13: SD3086 (VHH)
VHH: EVQLVESGGGLVQPGGSLRLSCAASGFTFSTSWMYWVRQAPGKGLEWVSVINTDGGTYYADSVKGRFTISRDNSKNTLYLQMNSLRAEDTAVYYCAKDWGGPEPTRGQGTLVTVSS
Turning to B13, the VNA IC50 in assay [1] is greater than 1000 nM.

B14: SD3004 (VHH)
VHH: EVQLVESGGGLVQPGGSLRLSCAASGFTFSTSWMYWLRQAPGKGLEWVSVINTDGGTYYADSVKGRFTISRDNSKDTLYLQMNSLRAEDTAVYYCAKDWGGPEPTRGQGTQVTVSS
Consider B14, for which the VNA IC50 in assay [1] was greater than 1000 nM; in assay [2], 101 nM.

B15: SD3007 (VHH)
VHH: EVQLLESGGGLVQPGGSLRLSCAASGFTLENKAIGWFRQAPGKEREGVSCISKSGSWTYYADSVKGRFTISRDNSKNTVYLQMNSLRAEDTAVYYCATTTAGGGLCWDGTTFSRLASSWGQGTQVTVSS
As to B15, the VNA IC50 in assay [1] and in assay [2] was greater than 1000 nM in each case.

B16: SD3088 (VHH)
VHH: EVQLLESGGGLVQPGGSLRLSCAASGFTLENKAIGWFRQAPGKEREGVLCISKSGSWTYYADSVKGRFTISRDNSKNTLYLQMNSLRAEDTAVYYCATTTAGGGLCWDGTTFSRLASSWGQGTLVTVSS
Molecule B16 displayed a VNA IC50 in assay [1] of 127 nM.

B17: SD3009 (VHH)
VHH: EVQLLESGGGLVQPGGSLRLSCAASGFTLENKAMSWFRQAPGKEREGVLCISKSGSWTYYADSVKGRFTISRDNSKNTLYLQMNSLRAEDTAVYYCATTTAGGGLCWDGTTFSRLASSWGQGTQVTVSS
With B17, the VNA IC50 in assay [1] came to 372 nM; in assay [2], 516 nM.

B18: SD3012 (VHH)
VHH: EVQLLESGGGLVQPGGSLRLSCAASGFTLENKAIGWFRQAPGKEREGVLCISKSGSWTYYADSVKGRFTISRDNSKNTVYLQMNSLRPEDTAVYYCATTTAGGGLCWDGTTFSRLASSWGQGTQVTVSS
Regarding B18, the VNA IC50 in assay [1] was determined as 60 nM; in assay [2], 78 nM.

B19: SD3011 (VHH)
VHH: EVQLLESGGGLVQPGGSLRLSCAASGFTLENKAIGWFRQAPGKEREGVLCISKSGSWTYYADSVKGRFTISRDNSKNTVYLQMNSLRAEDTAVYYCATTTAGGGLCWDGTTFSRLASSWGQGTQVTVSS
With B19, the VNA IC50 in assay [1] was found to be 59 nM; in assay [2], 96 nM.

B20: SD3010 (VHH)
VHH: EVQLLESGGGLVQPGGSLRLSCAASGFTLENKAIGWFRQAPGKEREGVLCISKSGSWTYYADSVKGRFTISRDNSKNTLYLQMNSLRAEDTAVYYCATTTAGGGLCWDGTTFSRLASSWGQGTQVTVSS
In the case of B20, the values for the VNA IC50 in assay [1] and in assay [2] were 227 nM and 173 nM, respectively.

B21: SD3008 (VHH)
VHH: EVQLLESGGGLVQPGGSLRLSCAASGFTLENKAIGWFRQAPGKEREGVSCISKSGSWTYYADSVKGRFTISRDNSKNTVYLQMNSLRPEDTAVYYCATTTAGGGLCWDGTTFSRLASSWGQGTQVTVSS
On to B21, for which the VNA IC50 in assay [1] and in assay [2] was greater than 1000 nM throughout.
